In patent publication US20220362368A1:
Read-outs that look alike come from different tables or passages of the source.

What was measured:
human IgG = experiment: SPR, test article on chip, human IgG in flow
[1] = biological target: Fcγ fragment of human IgG (human); experiment: BLI, test article on Ni-NTA sensor, Fc fragment of human IgG in solution
[2] = biological target: F(ab)2 fragment of human IgG; experiment: SPR, test article on chip, F(ab)2 fragment of human IgG in flow
[3] = biological target: SpAQ9,10K/S33T (Staphylococcus aureus); experiment: ELISA, association constant calculated with GraphPad Prism; head of the table: KA (x 10^10) M^-1
[4] = biological target: SpAQ9,10K/S33E (Staphylococcus aureus); experiment: as above
[5] = biological target: SpAKKAA (Staphylococcus aureus); experiment: as above
[6] = biological target: SpAQ9,10K/S33T (Staphylococcus aureus)
[7] = biological target: SpAQ9,10K/S33E (Staphylococcus aureus)
[8] = biological target: SpAKKAA (Staphylococcus aureus); experiment: ELISA, plates coated with SpAKKAA, serial dilution of hMAb 3F6
[9] = biological target: SpAKKAA (Staphylococcus aureus); experiment: ELISA, plates coated with SpAKKAA, serial dilution of rMAb 3F6
[10] = biological target: SpAQ9,10K/S33T (Staphylococcus aureus); experiment: ELISA, plate coated with antigen, serial dilutions of rMAb 3F6
[11] = biological target: SpAQ9,10K/S33E (Staphylococcus aureus); experiment: as above
[12] = biological target: SpAKKAA (Staphylococcus aureus); experiment: as above
[13] = biological target: SpAQ9,10K/S33T (Staphylococcus aureus); remark: listed apart in the source
[14] = biological target: SpAQ9,10K/S33E (Staphylococcus aureus); remark: listed apart in the source

Row | Substance | Ka (human IgG) | further results
1 | SpAQ9,10K/S33E/G29A (from UniProt P02976 37-327) | 126000 M⁻¹ | 
2 | SpAQ9,10K/S33E/G29F (from UniProt P02976 37-327) | 158000 M⁻¹ | 
3 | SpAQ9,10K/S33E/G29R (from UniProt P02976 37-327) | 484000 M⁻¹ | 
4 | SpAQ9,10K/S33F/D36,37A (from UniProt A0A0H3K686 37-327) | 363000 M⁻¹ | 
5 | SpAQ9,10K/S33F/D36,37A/G29R | 906000 M⁻¹ | 
6 | SpAQ9,10K/S33F/G29A (from UniProt A0A0H3K686 37-327) | 119000 M⁻¹ | 
7 | SpAQ9,10K/S33F/G29F (from UniProt A0A0H3K686 37-327) | 244000 M⁻¹ | 
8 | SpAQ9,10K/S33F/G29R (from UniProt A0A0H3K686 37-327) | 190000 M⁻¹ | 
9 | SpAQ9,10K/S33G (from UniProt P02976 37-327) | 1.12e+06 M⁻¹ | 
10 | SpAQ9,10K/S33H (from UniProt A0A0H3K686 37-327) | 278000 M⁻¹ | 
11 | SpAQ9,10K/S33I (from UniProt A0A0H3K686 37-327) | 184000 M⁻¹ | 
12 | SpAQ9,10K/S33K (from UniProt P02976 37-327) | 512000 M⁻¹ | 
13 | SpAQ9,10K/S33K/D36,37A (from UniProt A0A0H3K686 37-327) | 805000 M⁻¹ | 
14 | SpAQ9,10K/S33L (from UniProt A0A0H3K686 37-327) | 205000 M⁻¹ | 
15 | SpAQ9,10K/S33M (from UniProt A0A0H3K686 37-327) | 318000 M⁻¹ | 
16 | SpAQ9,10K/S33N (from UniProt A0A0H3K686 37-327) | 307000 M⁻¹ | 

Row | Substance | Ka (human IgG) | further results
17 | SpAQ9,10K/S33P (from UniProt P02976 37-327) | 422000 M⁻¹ | 
18 | SpAQ9,10K/S33Q/D36,37A (from UniProt P02976 37-327) | 393000 M⁻¹ | 
19 | SpAQ9,10K/S33Q/D36,37A/G29A | 489000 M⁻¹ | 
20 | SpAQ9,10K/S33Q/D36,37A/G29F | 1.25e+06 M⁻¹ | 
21 | SpAQ9,10K/S33Q/D36,37A/G29R | 638000 M⁻¹ | 
22 | SpAQ9,10K/S33Q/G29A (from UniProt A0A0H3K686 37-327) | 256000 M⁻¹ | 
23 | SpAQ9,10K/S33Q/G29F (from UniProt A0A0H3K686 37-327) | 128000 M⁻¹ | 
24 | SpAQ9,10K/S33Q/G29R (from UniProt A0A0H3K686 37-327) | 233000 M⁻¹ | 
25 | SpAQ9,10K/S33R (from UniProt A0A0H3K686 37-327) | 346000 M⁻¹ | 
26 | SpAQ9,10K/S33T (from UniProt A0A0H3K686 37-327) | 38600 M⁻¹ | Ka [1]: 39.9 M⁻¹; Ka [2]: 43.5 M⁻¹
27 | SpAQ9,10K/S33V (from UniProt A0A0H3K686 37-327) | 247000 M⁻¹ | 
28 | SpAQ9,10K/S33W (from UniProt A0A0H3K686 37-327) | 236000 M⁻¹ | 
29 | SpAQ9,10K/S33Y (from UniProt A0A0H3K686 37-327) | 157000 M⁻¹ | 
30 | hMAb 3F6 (antibody) |  | Ka [3]: 7.96e+10 M⁻¹; Ka [4]: 9.82e+10 M⁻¹; Ka [5]: 4.99e+10 M⁻¹; EC50 (read off the curve) [6]: 0.3 nM; EC50 (read off the curve) [7]: 0.3 nM; EC50 (read off the curve) [8]: 0.4 nM
31 | recombinant monoclonal antibody rMAb 3F6 |  | EC50 (read off the curve) [9]: 0.07 nM; Ka [10]: 1.34e+10 M⁻¹; Ka [11]: 1.42e+10 M⁻¹; Ka [12]: 1.51e+10 M⁻¹; EC50 (read off the curve) [13]: 0.07 nM; EC50 (read off the curve) [14]: 0.07 nM
32 | wild-type SpA (five immunoglobulin-binding domains of staphylococcal protein A) (from UniProt P02976 37-327) |  | Ka [1]: 5.17e+07 M⁻¹
